# Assay results: the Immune Epitope Database (IEDB)
# pIC50, pKd: −log10 of the molar value.
# Columns and labels:
# HLA-B*07:02 [1] = test: IEDB peptide-MHC binding, purified MHC/competitive/fluorescence; ≥ and ≤ were set here for values at or beyond the usual limits of such assays
# HLA-A*02:01 [2] = test: IEDB peptide-MHC binding, purified MHC/competitive/radioactivity; filed as Kd, often an IC50 or EC50 that approximates it; ≥ and ≤ were set here for values at or beyond the usual limits of such assays; conditions: source organism: Vaccinia virus WR
# HLA-A*02:02 = test: as above; conditions: source organism: Vaccinia virus WR
# HLA-A*02:03 [3] = test: as above; conditions: source organism: Vaccinia virus WR
# HLA-A*02:06 = test: as above; conditions: source organism: Vaccinia virus WR
# HLA-A*68:02 [4] = test: as above; conditions: source organism: Vaccinia virus WR
# HLA-B*07:02 [5] = test: as above
# HLA-B*35:01 = test: as above
# HLA-B*51:01 = test: as above
# HLA-B*53:01 = test: as above
# HLA-B*54:01 = test: as above
# HLA-A*02:03 [6] = test: IEDB peptide-MHC binding, purified MHC/direct/fluorescence; filed as Kd, often an IC50 or EC50 that approximates it; ≥ and ≤ were set here for values at or beyond the usual limits of such assays; conditions: source organism: Mycobacterium tuberculosis str. Haarlem
# HLA-A*69:01 = test: as above; conditions: source organism: Mycobacterium tuberculosis
# HLA-A*02:01 [7] = test: IEDB peptide-MHC binding, purified MHC/competitive/fluorescence; ≥ and ≤ were set here for values at or beyond the usual limits of such assays
# HLA-A*11:01 = test: as above
# HLA-A*24:02 = test: as above; conditions: source organism: Sudan ebolavirus
# HLA-A*68:02 [8] = test: IEDB peptide-MHC binding, purified MHC/competitive/fluorescence; filed as Kd, often an IC50 or EC50 that approximates it; ≥ and ≤ were set here for values at or beyond the usual limits of such assays
# HLA-A*30:01 = test: IEDB peptide-MHC binding, purified MHC/competitive/radioactivity; filed as Kd, often an IC50 or EC50 that approximates it; ≥ and ≤ were set here for values at or beyond the usual limits of such assays
# HLA-A*32:01 = test: as above
# HLA-B*08:01 = test: as above
# HLA-B*15:01 [9] = test: as above
# HLA-B*15:03 = test: as above
# HLA-A*24:03 = test: IEDB peptide-MHC binding, purified MHC/competitive/fluorescence; filed as Kd, often an IC50 or EC50 that approximates it; ≥ and ≤ were set here for values at or beyond the usual limits of such assays; conditions: source organism: Escherichia coli F11
# HLA-B*15:01 [10] = test: IEDB peptide-MHC binding, purified MHC/competitive/fluorescence; ≥ and ≤ were set here for values at or beyond the usual limits of such assays
# [11] = source organism: Vaccinia virus WR
# [12] = source organism: Sudan ebolavirus
# [13] = source organism: SARS coronavirus Tor2
# [14] = source organism: Vaccinia virus Copenhagen
# [15] = source organism: Vaccinia virus
# [16] = source organism: Zaire ebolavirus
sequence,measurement,setting,value
AAEAMEVA,pIC50,HLA-B*07:02 [1]; source organism: H1N1 subtype Influenza A/Oklahoma/7485/01,≤ 3.00
AFEFINSLLK,pKd,HLA-A*02:01 [2],4.92
same,pKd,HLA-A*02:02,5.26
same,pKd,HLA-A*02:03 [3],≤ 4.69
same,pKd,HLA-A*02:06,≤ 4.37
same,pKd,HLA-A*68:02 [4],4.94
same,pKd,HLA-B*07:02 [5]; [11],≤ 4.16
same,pKd,HLA-B*35:01; [11],≤ 4.16
same,pKd,HLA-B*51:01; [11],≤ 4.16
same,pKd,HLA-B*53:01; [11],≤ 4.16
same,pKd,HLA-B*54:01; [11],≤ 4.16
ALLENIHRV,pKd,HLA-A*02:03 [6],8.70
same,pKd,HLA-A*69:01,7.33
ATSYLEYEI,pIC50,HLA-A*02:01 [7]; [12],5.30
same,pIC50,HLA-A*11:01; [12],≤ 4.09
same,pIC50,HLA-A*24:02,5.29
AVVVNPSVK,pIC50,HLA-A*11:01; source organism: West Nile virus,5.65
CPAEIVDTV,pKd,HLA-B*07:02 [5]; [13],6.05
same,pKd,HLA-B*35:01; [13],6.71
same,pKd,HLA-B*51:01; [13],8.73
same,pKd,HLA-B*53:01; [13],6.92
same,pKd,HLA-B*54:01; [13],8.00
DVALEDNLI,pKd,HLA-A*68:02 [8]; source organism: Vibrio cholerae V52,7.04
EDNPGFFRV,pKd,HLA-A*68:02 [8]; source organism: Yersinia pestis CO92,6.53
EELRSLYNTI,pKd,HLA-A*68:02 [8]; source organism: Human immunodeficiency virus 1,≤ 4.70
ELAYYNSCM,pKd,HLA-A*02:02,6.89
same,pKd,HLA-A*02:03 [3],6.87
same,pKd,HLA-A*02:06,5.45
same,pKd,HLA-A*30:01; [14],5.84
same,pKd,HLA-A*32:01; [14],≤ 4.69
same,pKd,HLA-B*08:01; [14],6.46
same,pKd,HLA-B*15:01 [9]; [14],6.23
same,pKd,HLA-B*15:03; [14],5.38
EPEKDIRELL,pKd,HLA-B*07:02 [5]; [11],4.81
same,pKd,HLA-B*35:01; [11],≤ 4.45
same,pKd,HLA-B*51:01; [11],≤ 4.29
same,pKd,HLA-B*53:01; [11],6.65
same,pKd,HLA-B*54:01; [11],≤ 4.62
EPISDYSAEV,pKd,HLA-B*07:02 [5]; [11],5.86
same,pKd,HLA-B*35:01; [11],5.97
same,pKd,HLA-B*51:01; [11],5.95
same,pKd,HLA-B*53:01; [11],5.62
same,pKd,HLA-B*54:01; [11],7.33
EQYKTESFF,pKd,HLA-B*15:01 [9]; [11],8.18
same,pKd,HLA-B*15:03; [11],8.74
FFLQRLYFL,pKd,HLA-A*30:01; [11],6.11
same,pKd,HLA-A*32:01; [11],≤ 4.42
same,pKd,HLA-B*08:01; [11],8.17
same,pKd,HLA-B*15:01 [9]; [11],5.92
same,pKd,HLA-B*15:03; [11],6.09
FGIKCIKKG,pIC50,HLA-A*11:01; [15],≤ 3.54
FMTNFSMVY,pKd,HLA-B*15:03; [11],8.65
FNVNGSQVY,pKd,HLA-B*15:03; [11],6.58
FPCSICLSGL,pKd,HLA-B*07:02 [5]; [13],7.23
same,pKd,HLA-B*35:01; [13],6.91
same,pKd,HLA-B*51:01; [13],7.46
same,pKd,HLA-B*53:01; [13],6.52
same,pKd,HLA-B*54:01; [13],7.19
FQQPQFQYL,pKd,HLA-B*15:03; [14],7.65
FWPQHFGLI,pKd,HLA-A*24:03,9.40
GPHRTIHHA,pIC50,HLA-B*07:02 [1]; [16],5.24
GQSPARTSS,pIC50,HLA-B*15:01 [10]; [16],4.58
HPNPKGFCDL,pKd,HLA-B*07:02 [5]; [13],6.01
same,pKd,HLA-B*35:01; [13],6.51
same,pKd,HLA-B*51:01; [13],6.03
same,pKd,HLA-B*53:01; [13],6.16
same,pKd,HLA-B*54:01; [13],5.01
HTPQFLFQL,pIC50,HLA-A*02:01 [7]; [12],5.56
same,pIC50,HLA-A*11:01; [12],≤ 3.78
same,pIC50,HLA-A*24:02,5.95
same,pIC50,HLA-B*07:02 [1]; [12],≤ 4.10
IGLAWIPYF,pIC50,HLA-A*02:01 [7]; [16],5.25
same,pIC50,HLA-B*15:01 [10]; [16],≤ 3.82
ILHVDILSF,pKd,HLA-B*15:03; [11],7.62
ILRSLETDL,pIC50,HLA-A*02:01 [7]; [15],4.66
same,pIC50,HLA-B*15:01 [10]; [15],4.23
